The text below walks through data of article PMC8787470, “Functional Irreplaceability of Escherichia coli and Shewanella oneidensis OxyRs Is Critically Determined by Intrinsic Differences in Oligomerization” (mBio, 2022).

Series [1] deals with the molecule itself. In words: native gel or EMSA; oligomers read from shifted bands of protein on DNA: 10 nM digoxigenin-labelled 188 bp katB promoter probe, various amounts of His6-OxyR variant, 4 mM Tris-HCl pH 8.0, 40 mM NaCl, 4 mM MgCl2, 4% glycerol, poly(dI-dC), room temperature 15 min, 7% native polyacrylamide gel. On the technique in general: Mobility shift assays separate free from complexed probe on a gel.

Series [2] concerns the molecule itself. In words: crystal structure; SoOxyR RD C203S crystallised at 20°C by hanging-drop vapor diffusion, 4.0 M ammonium acetate, 0.1 M Bis-Tris propane pH 7.0; six molecules in the asymmetric unit; interfaces listed with PDBePISA.

B1: OxyR^Δ290− (SoOxyR truncation lacking all residues after 290) (domain or fragment, Shewanella oneidensis, UniProt Q8EHA1 1-290, looked up)
chain: MKNLPSLKNLYYLVNLHQEQNFNRAAKVCFVSQSTLSSGIQNLEEQLGHQLIERDHKSFMFTAIGEEVVQRSRKILTDVDDLVELVKNQGEPMTGDIRLGCIPTIAPFLLSRVVKQCQQAYPEMSLLLKEDTTERLLDALGKGELDLLILALPVDTSGYHSMKVGIDPFKMVIHKDLVGGIHQPIDYQTLPDESIFLLQSEHCITGHAITACQLGDSAKVNPFAATSLHTLVQMVNSKLGTTFLPQMAIDAGILNDTDLVVMTPPGEAPYRDIGLVWRQTTSRILTFRTL
notes: OxyR of Shewanella oneidensis, C-terminal truncation; the series is defined by SoOxyR^Δ283− (truncation lacking all residues after R283); also called SoOxyR^Δ290−; not shown: His6, N-terminal, kept
One may read the stoichiometry N as a count of units in the complex or per binding partner. With B1, the “stoichiometry N” value in series [1] is 4.

B2: OxyR_(R288E+F287A) (SoOxyR double point mutant) (natural protein, Shewanella oneidensis, UniProt Q8EHA1 1-304, looked up)
chain: MKNLPSLKNLYYLVNLHQEQNFNRAAKVCFVSQSTLSSGIQNLEEQLGHQLIERDHKSFMFTAIGEEVVQRSRKILTDVDDLVELVKNQGEPMTGDIRLGCIPTIAPFLLSRVVKQCQQAYPEMSLLLKEDTTERLLDALGKGELDLLILALPVDTSGYHSMKVGIDPFKMVIHKDLVGGIHQPIDYQTLPDESIFLLQSEHCITGHAITACQLGDSAKVNPFAATSLHTLVQMVNSKLGTTFLPQMAIDAGILNDTDLVVMTPPGEAPYRDIGLVWRQTTSRILTAETLGLLIQKLLTNETAQ
notes: OxyR of Shewanella oneidensis, the whole protein with two point mutations in helix α10; also called SoOxyR_(R288E-F287A); not shown: His6, N-terminal, kept
Consider B2, for which, in series [1], the “stoichiometry N” value was 4.

B3: SoOxyR RD_(C203S) (regulatory domain of Shewanella oneidensis OxyR, residues 91 to 304, C203S) (domain or fragment, UniProt Q8EHA1 91-304, looked up)
chain: EPMTGDIRLGCIPTIAPFLLSRVVKQCQQAYPEMSLLLKEDTTERLLDALGKGELDLLILALPVDTSGYHSMKVGIDPFKMVIHKDLVGGIHQPIDYQTLPDESIFLLQSEHSITGHAITACQLGDSAKVNPFAATSLHTLVQMVNSKLGTTFLPQMAIDAGILNDTDLVVMTPPGEAPYRDIGLVWRQTTSRILTFRTLGLLIQKLLTNETAQ
notes: OxyR of Shewanella oneidensis, regulatory domain (RD), residues 91 to 304 of the full-length protein, locked in the reduced form by C203S; Six molecules in the crystallographic asymmetric unit; also called RD_(C203S) of SoOxyR; SoOxyR^C203S RD
For B3, in series [2], the binding result is recorded as “binds”.

B4: OxyR^Δ286− (SoOxyR truncation lacking all residues after 286) (domain or fragment, Shewanella oneidensis, UniProt Q8EHA1 1-286, looked up)
chain: MKNLPSLKNLYYLVNLHQEQNFNRAAKVCFVSQSTLSSGIQNLEEQLGHQLIERDHKSFMFTAIGEEVVQRSRKILTDVDDLVELVKNQGEPMTGDIRLGCIPTIAPFLLSRVVKQCQQAYPEMSLLLKEDTTERLLDALGKGELDLLILALPVDTSGYHSMKVGIDPFKMVIHKDLVGGIHQPIDYQTLPDESIFLLQSEHCITGHAITACQLGDSAKVNPFAATSLHTLVQMVNSKLGTTFLPQMAIDAGILNDTDLVVMTPPGEAPYRDIGLVWRQTTSRILT
notes: OxyR of Shewanella oneidensis, C-terminal truncation; the series is defined by SoOxyR^Δ283− (truncation lacking all residues after R283); also called SoOxyR^Δ286−; not shown: His6, N-terminal, kept
On to B4, for which, in series [1], the binding result is “binds”.
